From article PMC3936261 (Oncogene, 2013)
Like-named read-outs stand apart in the source and are kept apart here.

What was measured:
Assay in all cases: other fluorescence titration
[1] = target: T1, PTEN protein labeled with QSY 35 (UniProt P60484 1-403, QSY 35 (label as for the MKP proteins))
[2] = target: T1, PTEN protein labeled with QSY 35; remark: listed apart in the source
[3] = target: T1, PTEN protein labeled with QSY 35; remark: listed apart in the source

T1 sequence (P60484 whole entry): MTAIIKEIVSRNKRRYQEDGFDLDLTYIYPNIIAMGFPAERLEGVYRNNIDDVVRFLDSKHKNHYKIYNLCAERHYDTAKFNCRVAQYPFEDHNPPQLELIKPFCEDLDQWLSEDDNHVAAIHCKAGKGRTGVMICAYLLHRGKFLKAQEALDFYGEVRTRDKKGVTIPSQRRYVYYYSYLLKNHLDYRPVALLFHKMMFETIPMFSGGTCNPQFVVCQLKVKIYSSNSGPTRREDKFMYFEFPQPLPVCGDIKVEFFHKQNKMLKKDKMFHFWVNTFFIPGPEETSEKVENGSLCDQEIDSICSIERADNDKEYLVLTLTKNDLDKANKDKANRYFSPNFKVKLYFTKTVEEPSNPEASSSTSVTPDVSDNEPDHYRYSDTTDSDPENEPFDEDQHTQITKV

Kd [1]: 247 nM | Kd [2]: 220 ± 22.5 nM | Kd [3]: 215 ± 19.5 nM
B1: Prdx1 protein labeled with Alexa Fluor 546 (enzyme, UniProt Q06830 1-199, looked up)
chain: MSSGNAKIGHPAPNFKATAVMPDGQFKDISLSDYKGKYVVFFFYPLDFTFVCPTEIIAFSDRAEEFKKLNCQVIGASVDSHFCHLAWVNTPKKQGGLGPMNIPLVSDPKRTIAQDYGVLKADEGISFRGLFIIDDKGILRQITVNDLPVGRSVDETLRLVQAFQFTDKHGEVCPAGWKPGSDTIKPDVQKSKEYFSKQK
modifications: Alexa Fluor 546 on primary amines (succinimidylester of Alexa Fluor 546 carboxylic acid)
